1 molecule from patent publication US20080187528A1 (FUNCTIONAL GENETICS, published 2008) can be followed below.

Assay [1] addresses biotinylated peptide Bio-… containing 11 amino acid residues from the N terminus of the Ebola VP40 (Ebola virus (EBOV)).
For assay [2], the target named is T1, truncated (31-326) Ebola VP40 (Ebola virus (EBOV), UniProt Q05128 31-326).
T1 sequence: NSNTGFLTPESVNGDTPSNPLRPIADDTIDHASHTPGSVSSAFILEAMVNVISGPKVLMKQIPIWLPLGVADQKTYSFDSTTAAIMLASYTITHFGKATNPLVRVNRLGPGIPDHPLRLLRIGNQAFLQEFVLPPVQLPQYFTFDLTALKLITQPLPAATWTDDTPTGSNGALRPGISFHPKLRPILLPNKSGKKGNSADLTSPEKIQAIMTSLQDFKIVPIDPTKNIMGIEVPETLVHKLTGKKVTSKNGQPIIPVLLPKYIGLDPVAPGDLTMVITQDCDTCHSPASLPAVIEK
Nature of the assay: Far Western.

B1: purified TSG101 protein that contains only the UEV domain (other)
chain: AVSESQLKKMVSKYKYRDLTVRETVNVITLYKDLKPVLDSYVFNDGSSRELMNLTGTIPVPYRGNTYNIPICLWLLDTYPYNPPICFVKPTSSMTIKTGKHVDANGKIYLPYLHEWKHPQSDLLGLIQVMIVVFGDEPPVFSRP
Usually Kd stands for the equilibrium constant for the complex coming apart. For the molecule B1, the Kd in assay [1] is 2000 nM. In assay [2], the binding result was “no binding”.
